Patent US20260226168A1

Tests used:
hGPRC5D [1] = target: hGPRC5D (UniProt Q9NZD1); assay: flow cytometry on MM.1S cells; negative control (EC50 '/': curve could not be fitted)
hGPRC5D [2] = target: hGPRC5D (UniProt Q9NZD1); assay: flow cytometry on NCI-H929 cells; negative control (EC50 '/': curve could not be fitted)
hGPRC5D [3] = target: hGPRC5D (UniProt Q9NZD1); assay: flow cytometry on RPMI-8226 cells; negative control (EC50 '/': curve could not be fitted)

hGPRC5D, sequence (Q9NZD1 whole entry): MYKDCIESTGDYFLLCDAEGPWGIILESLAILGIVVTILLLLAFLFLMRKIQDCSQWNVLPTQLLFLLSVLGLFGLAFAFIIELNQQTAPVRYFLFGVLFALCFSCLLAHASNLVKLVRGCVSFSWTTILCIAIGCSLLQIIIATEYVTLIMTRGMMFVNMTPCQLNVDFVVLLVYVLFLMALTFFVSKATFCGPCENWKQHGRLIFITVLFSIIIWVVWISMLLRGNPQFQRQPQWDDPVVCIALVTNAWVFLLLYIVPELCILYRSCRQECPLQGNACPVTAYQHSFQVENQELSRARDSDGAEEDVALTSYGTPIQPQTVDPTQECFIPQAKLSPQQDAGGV

## hIgG1 monoclonal antibody (Biointron, Cat. No. B117901)
hGPRC5D [1]
  Top(MFI): 6770
hGPRC5D [2]
  Top(MFI): 4180
hGPRC5D [3]
  Top(MFI): 3860
